Measured values from article PMC5437297, “PTEN regulates glioblastoma oncogenesis through chromatin-associated complexes of DAXX and histone H3.3” (Nature Communications, 2017).

Target: T1, human recombinant Flag-DAXX protein (human, UniProt Q9UER7 1-740)
T1 construct: DAXX (death-domain associated protein), human, recombinant; Commercial protein; no catalogue number is printed in the main text; source: bought: OriGene Technologies (recombinant protein)
Test: pull-down; 50 ng His-PTEN immobilised on 30 ul nickel beads, incubated with 200 ng Flag-DAXX for 2 h at 4 °C; bound proteins eluted and immunoblotted (the legend says IP anti-PTEN, IB anti-Flag)
Settings: both partners purified

T1 sequence (Q9UER7 whole entry): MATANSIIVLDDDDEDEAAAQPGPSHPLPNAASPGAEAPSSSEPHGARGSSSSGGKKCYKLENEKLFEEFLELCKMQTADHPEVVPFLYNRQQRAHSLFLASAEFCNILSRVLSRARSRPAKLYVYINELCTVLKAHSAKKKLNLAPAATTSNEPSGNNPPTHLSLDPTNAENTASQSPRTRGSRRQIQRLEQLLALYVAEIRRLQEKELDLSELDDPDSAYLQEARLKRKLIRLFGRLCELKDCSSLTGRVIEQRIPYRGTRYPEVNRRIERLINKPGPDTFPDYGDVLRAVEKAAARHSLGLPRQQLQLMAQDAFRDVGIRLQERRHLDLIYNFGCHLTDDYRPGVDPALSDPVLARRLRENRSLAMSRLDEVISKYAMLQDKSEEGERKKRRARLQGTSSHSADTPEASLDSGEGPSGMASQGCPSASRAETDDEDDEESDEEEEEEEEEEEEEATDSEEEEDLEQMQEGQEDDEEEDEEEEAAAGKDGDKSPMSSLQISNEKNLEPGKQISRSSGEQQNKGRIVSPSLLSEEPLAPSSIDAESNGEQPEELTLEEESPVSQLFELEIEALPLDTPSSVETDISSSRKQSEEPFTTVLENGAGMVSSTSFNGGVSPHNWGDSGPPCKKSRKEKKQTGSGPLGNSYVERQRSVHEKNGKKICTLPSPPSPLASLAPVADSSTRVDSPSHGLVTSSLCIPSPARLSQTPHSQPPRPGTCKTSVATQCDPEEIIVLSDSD

binding result: binds
B1: human recombinant His-PTEN (natural protein)
chain: not shown
notes: PTEN (phosphatase and tensin homolog), human, recombinant; Commercial protein; no catalogue number is printed in the main text (reagents are in the Supplementary Methods); source: bought: ENZO Life Science (recombinant protein)
